This note sets out measurements from the supplement of paper PMC9170038.

This data set deals with MS2 coat protein. Nature of the data set: apparent KD of MS2 coat protein; higher = weaker reporter binding. As to conditions: Eterna round: R107. Summed up:
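Designed RNA switches were transcribed on-chip from Illumina sequencing clusters and titrated with SNAP-549-labelled MS2 coat protein in twofold steps from 0.7 or 1.5 nM up to 3 µM. Each step lasted 0.8–1.5 h at first and 10–20 min by the end, in 100 mM Tris-HCl pH 7.5, 80 mM KCl and 4 mM MgCl2, without or with constant ligand. Apparent KD is the median, for each design, of fits to normalised cluster binding curves.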

[1] abbreviates: input ligand: theophylline 20 uM.
The mark [2] stands for this setting: input ligand: tryptophan 2.4 mM.
Setting [3] is: input ligand: theophylline 2 mM.

For “AUAAGGUAUCUGCUAUCCUCAUGAGCAGAUACCAGCUAGGAAACUAGCCCUUGGCAGCUGCAACAUGAGGAUCACCCAUGUAAUA [(T)'-(M)'-(T1)-(T2)-(M1)-(M2)_Design1]”, the “apparent KD of MS2 coat protein” value was 64.4 nM (input ligand: arginine 13.2 mM), 118 nM under setting [1] and 256 nM under setting [2].
“AUAAUAAAGUCGGCCGCCACUAUAAACAUGAGGAACAUGAGGAUCACCCAUGUAUGAGGAUCACCUAGGACCGGGACAAAUAUUA [AstrosExyTryB#3]”: the “apparent KD of MS2 coat protein” value reads like this: (input ligand: arginine 13.2 mM) 47.3 nM; (input ligand: none) 57.3 nM; under setting [1], 88.3 nM; under setting [3], 63.1 nM; under setting [2], 54.7 nM.
With “AUAAUAAUGUCGGCCGCCACUAUAAACAUGAGGAACAUGAGGAUCACCCAUGUAUGAGGAUCACCUAGGACCGGGACUAAUAUUA [AstrosExyTryB#5]”, the “apparent KD of MS2 coat protein” value was 33.9 nM (input ligand: arginine 13.2 mM), 57.1 nM under setting [1] and 52.9 nM under setting [3].
Take “AUACAUGAGGAUCACCCAUGUAAAGUUGAAGGAGCGACCAGAGGGUCAGGUAGGUCGCAACACAUGAGGAUCACCCAUGUAUCGA [DOUBLE!!! :-D #6]”: the “apparent KD of MS2 coat protein” value is 53.3 nM (input ligand: arginine 13.2 mM); 83.6 nM (input ligand: none); 78.4 nM under setting [1]; 79.4 nM under setting [3]; 71.4 nM under setting [2].
Turning to “AUACAUGAGGAUCACCCAUGUAUAGUUGAAGGAGCGACCGGUGGGUCAGGUAGGUCGCAGCGCAUGGCGUCCACGCGUGUAUGCC [#1 Exclusion - Arginine A Attempt #30 (Inspired by Pi)]”, the “apparent KD of MS2 coat protein” value amounted to 10.7 nM (input ligand: arginine 13.2 mM); 10.7 nM (input ligand: none); 16.4 nM under setting [1]; 11.3 nM under setting [3]; 11.1 nM under setting [2].
In the case of “AUACAUGAGGAUCACCCAUGUUACACUGAAGGAGCGACAUGUUUGUCAGGUAGGUCGCAGUGAAGUUUAAUAAUUCUUUGAUCUU [#06 Same State - Arginine A]”, the “apparent KD of MS2 coat protein” value was found to be 22.4 nM (input ligand: arginine 13.2 mM); 24 nM (input ligand: none); 36.4 nM under setting [1]; 26.5 nM under setting [3]; 23.7 nM under setting [2].
With “AUAUGAUCAUGGGAUACCAGAAAUGGUAUUCCUUUAUUUCUUACAUGAGGAUCACCCAUGUUCCCUUGGCAGCUUAUGAUCAUAU [ETHB #5]”, the “apparent KD of MS2 coat protein” value is 53.7 nM (input ligand: arginine 13.2 mM), 85.8 nM under setting [1] and 67.9 nM under setting [2].
“AUAUGAUCAUGUGAUACCAGAAAUGGUAUUCCUCGCUGGAUUACAUGAGGAUCACCCAUGUUCCCUUGGCAGCAUAUGAUCAUAU [#01 Exclusion-TheophyllineB]”: the “apparent KD of MS2 coat protein” value was found to be 21.3 nM (input ligand: arginine 13.2 mM), 36.3 nM under setting [1] and 20.9 nM under setting [2].
“AUGAAGCUAAGAGAUACCAGUGACCACAGAUACAUGAGGAUCACCCAUGUCUCAAAUUGUCACCCUUGGCAGCUCACUAUCGAAG [theeternabot_sameState_MS2_Theo_B_29]”: the “apparent KD of MS2 coat protein” value amounted to 11.2 nM (input ligand: arginine 13.2 mM), 11.9 nM under setting [1] and 10.2 nM under setting [2].
Turning to “AUGCACAUCUAGGAUACCAGCACCCUUAUGUCACUAGUUAACAUGAGGAUCACCCAUGUUUGCCCUUGGCAGCCUCAUUGACCAU [theeternabot_exclusion_MS2_Theo_B_9]”, the “apparent KD of MS2 coat protein” value reads like this: (input ligand: arginine 13.2 mM) 59.5 nM; under setting [1], 92.7 nM; under setting [2], 59.7 nM.
Turning to “AUGUAGAACCGAAGGAGCGCGAUGACAUGAGGAUCACCCAUGUAUUUGUGGUGGCUUCGAUCGCAGGUAGGUCGCGGAAGUAGUA [#04 Exclusion - Arginine B]”, the “apparent KD of MS2 coat protein” value runs as follows: (input ligand: arginine 13.2 mM) 96.6 nM; (input ligand: none) 128 nM; under setting [1], 162 nM; under setting [3], 346 nM; under setting [2], 211 nM.
In the same order, the values of “AUGUCGUUGAAUAUAGCGGCUUGGAGUGAUACCAGUAUGAUCCAAUACCCUUGGCAGCAUUACAUGAGGAUCACCCAUGUUCCAG [SSTheo A #24]” are 17.2 nM, 22.6 nM, 37.2 nM, 53.4 nM and 34 nM.
As to “AUUAACAUGAGGAUCACCCAUGUUCUCACACGAGGACCGGUACGGCCGCCACUCGGUUUGGUAUUGGUCACUAGGCAGUUAGGAG [theeternabot_sameState_MS2_Trp_A_12]”, the “apparent KD of MS2 coat protein” value turned out to be 15.2 nM (input ligand: arginine 13.2 mM), 26.7 nM under setting [1] and 17 nM under setting [3].
Take “AUUAUAGUUUAUAAGGAAAUUGAAACAGAAGGAGCGUGAGUAAUCACAGGUAGGUCGCUGGUAGUACAUGAGGAUCACCCAUGUU [JR_Nu_SSArginiA_Sub019]”: the “apparent KD of MS2 coat protein” value reads like this: (input ligand: arginine 13.2 mM) 21.9 nM; (input ligand: none) 24.1 nM; under setting [1], 32.2 nM; under setting [3], 26.5 nM; under setting [2], 22.4 nM.
“AUUCAUGGAAACAUGACAUACAUAACCGGUCGAGGACCGGUACGGCCGCCACUCGUUUGGAGGCACAUGAGGAUCACCCAUGUUA [SS Tryp A #9]”: the “apparent KD of MS2 coat protein” value runs as follows: (input ligand: arginine 13.2 mM) 21.7 nM; under setting [1], 35.9 nM; under setting [3], 28.2 nM.
Regarding “AUUCAUGGAAACAUGAGAUAUCCUACCGGUCGAGGACCGGUACGGCCGCCACUCGGUUGGUGGCACAUGAGGAUCACCCAUGUUA [SS Tryp A #12]”, the “apparent KD of MS2 coat protein” value runs as follows: (input ligand: arginine 13.2 mM) 77.6 nM; under setting [1], 310 nM; under setting [3], 378 nM.
“CAAUAAGUACCGGUCCUCAGAUCCUCAUGACGAGGACCGGUACGGCCGCCACUCGAAACAUGAGGAUCACCCAUGUAAUAAUAAC [Brourdmod02]”: the “apparent KD of MS2 coat protein” value is, setting by setting: (input ligand: arginine 13.2 mM) 20.6 nM; under setting [1], 68.4 nM; under setting [3], 51.9 nM.
Turning to “CAAUAGAUAGCGGCCGCCACUUACUCAUGAGGUAACAACAUGAGGAUCACCCAUGUUUGAGGAUCAAGGACCGGGCUAUUUAUUG [AstrosSSTryB#7]”, the “apparent KD of MS2 coat protein” value runs as follows: (input ligand: arginine 13.2 mM) 29.1 nM; (input ligand: none) 27.5 nM; under setting [1], 39.1 nM; under setting [3], 31.9 nM; under setting [2], 19.1 nM.
As to “CACGCACGAUCGGCCGCCACUCGUGUAGCUUACAUGAGGAUCACCCAUGUAUGUUCAUUCAUAUAGAGGACCGGGAUCGUGCGUG [#05 Same State - Tryptophan B]”, the “apparent KD of MS2 coat protein” value turned out to be 9.09 nM (input ligand: arginine 13.2 mM); 12.8 nM (input ligand: none); 18.5 nM under setting [1]; 12.1 nM under setting [3]; 11.7 nM under setting [2].
